Experimental data taken from patent publication US20250376501A1.

Columns and labels:
Assay in all cases: Gator BLI, hTSLP mutant from CHO cells against 3H10-biotin
hTSLP-K32A (human) = hTSLP-K32A (human) (UniProt Q969D9)
hTSLP-E20A (human) = hTSLP-E20A (human) (UniProt Q969D9)
hTSLP-L27A (human) = hTSLP-L27A (human) (UniProt Q969D9)
hTSLP-L133A (human) = hTSLP-L133A (human) (UniProt Q969D9)
hTSLP-N130A (human) = hTSLP-N130A (human) (UniProt Q969D9)
hTSLP-S43A (human) = hTSLP-S43A (human) (UniProt Q969D9)
hTSLP-S28A (human) = hTSLP-S28A (human) (UniProt Q969D9)
hTSLP-K23A (human) = hTSLP-K23A (human) (UniProt Q969D9)
hTSLP-R131A (human) = hTSLP-R131A (human) (UniProt Q969D9)
hTSLP-R55A (human) = hTSLP-R55A (human) (UniProt Q969D9)
hTSLP-R127A (human) = hTSLP-R127A (human) (UniProt Q969D9)
hTSLP-K135A (human) = hTSLP-K135A (human) (UniProt Q969D9)
hTSLP-K21A (human) = hTSLP-K21A (human) (UniProt Q969D9)
hTSLP-D18A (human) = hTSLP-D18A (human) (UniProt Q969D9)
Chain of hTSLP-D18A (human) (Q969D9 29-159 R127A/R130A): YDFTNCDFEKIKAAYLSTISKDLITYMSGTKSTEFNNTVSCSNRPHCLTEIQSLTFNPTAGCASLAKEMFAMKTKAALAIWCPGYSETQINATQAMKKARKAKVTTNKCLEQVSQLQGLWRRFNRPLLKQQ

Chain of hTSLP-K32A (human) (Q969D9 29-159 R127A/R130A): as above
Chain of hTSLP-E20A (human) (Q969D9 29-159 R127A/R130A): as above
Chain of hTSLP-S28A (human) (Q969D9 29-159 R127A/R130A): as above
Chain of hTSLP-K23A (human) (Q969D9 29-159 R127A/R130A): as above
Chain of hTSLP-R55A (human) (Q969D9 29-159 R127A/R130A): as above
Chain of hTSLP-R127A (human) (Q969D9 29-159 R127A/R130A): as above
Chain of hTSLP-L133A (human) (Q969D9 29-159 R127A/R130A): as above
Chain of hTSLP-S43A (human) (Q969D9 29-159 R127A/R130A): as above
Chain of hTSLP-R131A (human) (Q969D9 29-159 R127A/R130A): as above
Chain of hTSLP-K135A (human) (Q969D9 29-159 R127A/R130A): as above
Chain of hTSLP-N130A (human) (Q969D9 29-159 R127A/R130A): as above
Chain of hTSLP-K21A (human) (Q969D9 29-159 R127A/R130A): as above
Chain of hTSLP-L27A (human) (Q969D9 29-159 R127A/R130A): as above

Decreased fold in binding affinity compared to wild-type TSLP (hTSLP-K32A (human)): 1.2 fold | Decreased fold in binding affinity compared to wild-type TSLP (hTSLP-E20A (human)): 6.1 fold | Decreased fold in binding affinity compared to wild-type TSLP (hTSLP-L27A (human)): 9.3 fold | Decreased fold in binding affinity compared to wild-type TSLP (hTSLP-L133A (human)): 2.05 fold | Decreased fold in binding affinity compared to wild-type TSLP (hTSLP-N130A (human)): 2.2 fold | Decreased fold in binding affinity compared to wild-type TSLP (hTSLP-S43A (human)): 5 fold | Decreased fold in binding affinity compared to wild-type TSLP (hTSLP-S28A (human)): 5.1 fold | Decreased fold in binding affinity compared to wild-type TSLP (hTSLP-K23A (human)): 2.4 fold | Decreased fold in binding affinity compared to wild-type TSLP (hTSLP-R131A (human)): 2.1 fold | Decreased fold in binding affinity compared to wild-type TSLP (hTSLP-R55A (human)): 0.5 fold | Decreased fold in binding affinity compared to wild-type TSLP (hTSLP-R127A (human)): 1.8 fold | Decreased fold in binding affinity compared to wild-type TSLP (hTSLP-K135A (human)): 1.7 fold | Decreased fold in binding affinity compared to wild-type TSLP (hTSLP-K21A (human)): 11.9 fold | Decreased fold in binding affinity compared to wild-type TSLP (hTSLP-D18A (human)): 7.9 fold
B1: 3H10-biotin protein (designed binder)
chain: GSHMDLGKKLLEAAWAGRDDEVRILMANGADVNAGDASGDTPLHLAAFSGHLEIVEVLLKHGADVNAEDLLGMTPLHLAAPFGHLEIVEVLLKHGADVNAAARNNGKTPLHLAAFVGHLEIVEVLLKNGADVNAQDKFGKTAFDISIDNGNEDLAEILQKLNG
modifications: biotin (site not stated)
